# B1: antibody 617 (antibody, V domains shown)
# VH: QVQLQLPGAELVKPGASVKVSCKASAYTFTSYWMHWVKQRPGQGLEWIGRIHPSDSDTNYNQNFKGKATLTVDKSSNTAYMQLSSLTSEDSAVYYCATGFSFWGQGTLVTVSA
# VL: DIVMTQSHKFMSTSVGDRVSITCKASQDVSTTVAWYQQKPGQSPKLLIYSASYRYTGVPDRFTGSGSGTDFTFTISSVQAEDLAVYYCQQHYSTRPTFGGGTKLEIK
# B2: antibody 616 (antibody, V domains shown)
# VH: QIHLVQSGPELKKPGETVRISCKASGYTFTTYGMSWVKQAPGKALKWMGWINTYSGVPTYADDFKGRFAFSLETSASTAYLQINNLKNEDTATYFCTREGSTMVTRYYFDYWGQGTTLTVSS
# VL: DIVMTQAAPSVPVTPGESVSISCRSSKSLLHSNGNTYLYWFLQRPGQSPQLLIYRMSNLASGVPDRFSGSGSGTAFTLRISRVEAEDVGVYHCMQHLESPYTFGGGTTLEIK
# B3: antibody 619 (antibody, V domains shown)
# VH: QIQLVQSGPELKKPGETVKISCKASGYTFTTYGMSWVKQAPGKGLKWMGWINTYSGVPTYADDFKGRFAFSLETSASTAYLQINNLKNEDTATYFCAREGSTMVTRYYFDYWGQGTTLTVSS
# VL: DIVMTQAAPSVPVTPGESVSISCRSSKSLLHSNGNTYLYWFLQRPGQSPQVLIYRMSNLASGVPDRFSGSGSGTAFTLRISRVEAEDVGVYYCMQHLESPYTFGGGTKLEIK
# B4: antibody 623 (antibody, V domains shown)
# VH: QIQLVQSGPELKKPGETVKISCKASGYTFTTYGMSWVKQAPGKGLKWMGWINTYSGVPTYADDFKGRFAFSLETSASTAYLQINNLKNEDTATFFCAREGSTMVTRYYFDYWGQGTTLTVSS
# VL: DIVMTQAAPSVPVTPGESVSISCRSSKSLLHSNGNTYLYWFLQRPGQSPQLLIYRMSNLASGVPDRFSGSGSGTAFTLRISRVEAEDVGVYYCMQHLEYPSTFGGGTKLEIK
# Molecular target: Pep1/Pep2
# Assay: ELISA, coated peptide
row,Binder,ELISA O.D.
1,B1,0.102 O.D.
2,B2,0.069 O.D.
3,B3,0.064 O.D.
4,B4,0.098 O.D.

# Reference: US20190100588A1
